The results in this text go back to patent US20170081406A1.

Experiment [1] has as its target Human FcRn with human β2M on MDCK II clone 15 cells (human) (UniProt P55899). The experiment is described as follows: cell-based or functional assay.
Experiment [2] shares this target.

Sequence of Human FcRn with human β2M on MDCK II clone 15 cells (human) (P55899 24-365, chain 1 of 2): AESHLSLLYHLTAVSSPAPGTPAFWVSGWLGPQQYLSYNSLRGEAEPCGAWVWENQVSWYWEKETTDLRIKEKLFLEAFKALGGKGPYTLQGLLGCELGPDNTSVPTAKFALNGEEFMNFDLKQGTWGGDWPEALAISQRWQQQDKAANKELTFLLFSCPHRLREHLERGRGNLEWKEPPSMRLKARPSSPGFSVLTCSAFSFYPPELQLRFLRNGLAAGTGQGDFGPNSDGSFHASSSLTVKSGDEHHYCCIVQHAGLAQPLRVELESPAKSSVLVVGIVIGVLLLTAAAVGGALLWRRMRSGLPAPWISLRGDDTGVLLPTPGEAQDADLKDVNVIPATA
Sequence of Human FcRn with human β2M on MDCK II clone 15 cells (human) (P61769 21-119, chain 2 of 2, further chain): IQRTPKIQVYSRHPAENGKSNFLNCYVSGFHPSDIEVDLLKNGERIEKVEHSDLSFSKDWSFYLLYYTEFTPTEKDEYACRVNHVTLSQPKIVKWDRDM

Regarding “IgG1 IgM tail-piece, V308P (Fc-multimer) (Fc fusion)”, in experiment [1], the Blockade of IgG intracellular uptake EC50 came out at 0.34 µg/mL and the Blockade of IgG recycling EC50 turned out to be 0.55 µg/mL.
Turning to “IgG4 IgM tail-piece, V308F (Fc-multimer) (Fc fusion)”, in experiment [1], the Blockade of IgG intracellular uptake EC50 was found to be 0.42 µg/mL and the Blockade of IgG recycling EC50 was found to be 0.56 µg/mL.
As to “IgG1 IgM tail-piece, H310L (Fc-multimer) (Fc fusion)”, the Blockade of IgG recycling (% inhibition at 100 µg/ml) in experiment [1] stood at 45.
On to “IgG1 IgM tail-piece, Wild-type (Fc-multimer) (Fc fusion)”, for which, in experiment [1], the Blockade of IgG intracellular uptake EC50 was 4.4 µg/mL and the Blockade of IgG recycling EC50 was found to be 0.33 µg/mL.
Regarding “IgG4 IgM tail-piece, Wild-type (Fc-multimer) (Fc fusion)”, in experiment [1], the Blockade of IgG intracellular uptake EC50 worked out at 5.9 µg/mL and the Blockade of IgG recycling EC50 stood at 1 µg/mL.
For “IgG1 IgM tail-piece, V308F (Fc-multimer) (Fc fusion)”, in that order: 0.12 µg/mL and 0.073 µg/mL.
For “IgG1 IgM tail-piece, T307A (Fc-multimer) (Fc fusion)”, in experiment [1], the Blockade of IgG intracellular uptake EC50 turned out to be 0.54 µg/mL and the Blockade of IgG recycling EC50 turned out to be 0.35 µg/mL.
For “IgG4 IgM tail-piece, V308P (Fc-multimer) (Fc fusion)”, in that order: 0.51 µg/mL and 0.42 µg/mL.
“IgG1 Fc IgM tp L309 (wild type IgG1 Fc-multimer) (from UniProt P0DOX5 228-449) (Fc fusion)”: in experiment [2], the EC50, inhibition of FcRn mediated IgG recycling (cell lysates), MDCK II clone 15 cells, biotinylated human IgG, MSD detection is 0.37 µg/mL and the EC50, inhibition of FcRn mediated IgG recycling (culture media), MDCK II clone 15 cells, biotinylated human IgG, MSD detection was found to be 0.33 µg/mL.
In experiment [1], “IgG4 IgM tail-piece, T307A (Fc-multimer) (Fc fusion)” yielded a Blockade of IgG intracellular uptake EC50 of 0.5 µg/mL.
“human IgG1 Fc-multimer IgM tp L309C (from UniProt P0DOX5 228-449) (Fc fusion)” had an EC50, inhibition of FcRn mediated IgG recycling (cell lysates), MDCK II clone 15 cells, biotinylated human IgG, MSD detection in experiment [2] of 7.28 µg/mL.
